Among the data in patent US20240209096A1 (INVETX, published 2024) are Kd, koff and kon values, retold here.

As a reminder, the Kd is a measure of binding affinity in units of concentration. High values mean a looser complex, low ones a tighter complex. One may read the koff as the rate constant with which the complex falls apart. Low values mean slow dissociation, high ones fast dissociation. Broadly, the kon is a measure of how fast the partners come together. Low readings indicate slow association, high ones fast association.

The chains are these.
B1: IgG with canine IgGB Fc variant N434H, A426W (antibody)
heavy: EVQLVESGGDLVAPSQSLSITCTVSGMSLTSNSISWVRQPPGRGLEWLGTIWSNGGTDYTDAVKGRFTISRDNAKNTVYLQMNSLRAEDTAMYYCAQIYYYDADYLHWYFDFWGQGTLVTVSSASTTAPSVFPLAPSCGSTSGSTVALACLVSGYFPEPVTVSWNSGSLTSGVHTFPSVLQSSGLYSLSSMVTVPSSRWPSETFTCNVAHPASKTKVDKPVPKRENGRVPRPPDCPKCPAPEAAGGPSVFIFPPKPKDTLLIARTPEVTCVVVDLDPEDPEVQISWFVDGKQMQTAKTQPREEQFNGTYRVVSVLPIGHQDWLKGKQFTCKVNNKALPSPIERTISKARGQAHQPSVYVLPPSREELSKNTVSLTCLIKDFFPPDIDVEWQSNGQQEPESKYRTTPPQLDEDGSYFLYSKLSVDKSRWQRGDTFICWVMHEALHHHYTQESLSHSPG
light: EIVMTQSPASLSASQEEKVTITCRASEGISNNLAWYQQKPGQAPKLLIHATSSLQTGVPSRFSGSGSGTDFTLTISSLQPEDFATYYCQQGYQFPLTFGQGTKVEIKRNDAQPAVYLFQPSPDQLHTGSASVVCLLNSFYPKDINVKWKVDGVIQDTGIQESVTEQDKDSTYSLSSTLTMSSTEYLSHELYSCEITHKSLPSTLIKSFQRSECQRVD
notes: Full chains; canine IgGB constant domain with MALA mutations; variable domains of WO 2023/97275
B2: IgG with canine IgGB Fc variant N434H, A426L (antibody)
heavy: B1 heavy with W437L
light: B1 light
notes: as for B1
B3: IgG with canine IgGB Fc variant N434H, A426F (antibody)
heavy: B1 heavy with W437F
light: B1 light
notes: as for B1
B4: IgG with canine IgGB Fc variant L252Y (antibody)
heavy: B1 heavy with L261Y, W437A, H445N
light: B1 light
notes: as for B1
B5: IgG with canine IgGB Fc variant N434H (antibody)
heavy: B1 heavy with W437A
light: B1 light
notes: as for B1
B6: IgG with canine IgGB Fc variant L252Y, A426H (antibody)
heavy: B1 heavy with L261Y, W437H, H445N
light: B1 light
notes: as for B1
B7: IgG with canine IgGB Fc variant L252Y, A426L (antibody)
heavy: B1 heavy with L261Y, W437L, H445N
light: B1 light
notes: as for B1
B8: IgG with canine IgGB Fc variant N434H, A426Y (antibody)
heavy: B1 heavy with W437Y
light: B1 light
notes: as for B1
B9: IgG with canine IgGB Fc variant L252Y, T286L (antibody)
heavy: B1 heavy with L261Y, T295L, W437A, H445N
light: B1 light
notes: as for B1
B10: IgG with canine IgGB Fc variant L252M (antibody)
heavy: B1 heavy with L261M, W437A, H445N
light: B1 light
notes: as for B1
B11: IgG with canine IgGB Fc variant L252M, A426H (antibody)
heavy: B1 heavy with L261M, W437H, H445N
light: B1 light
notes: as for B1
B12: IgG with canine IgGB Fc variant L252Y, T286W (antibody)
heavy: B1 heavy with L261Y, T295W, W437A, H445N
light: B1 light
notes: as for B1
B13: IgG with canine IgGB Fc variant L252M, T286W (antibody)
heavy: B1 heavy with L261M, T295W, W437A, H445N
light: B1 light
notes: as for B1
B14: IgG with canine IgGB Fc variant L252M, A426L (antibody)
heavy: B1 heavy with L261M, W437L, H445N
light: B1 light
notes: as for B1
B15: IgG with canine IgGB Fc variant L252M, T286Y (antibody)
heavy: B1 heavy with L261M, T295Y, W437A, H445N
light: B1 light
notes: as for B1
B16: IgG with canine IgGB Fc variant L252M, T286L (antibody)
heavy: B1 heavy with L261M, T295L, W437A, H445N
light: B1 light
notes: as for B1
B17: IgG with canine IgGB Fc variant L252Y, T286Y (antibody)
heavy: B1 heavy with L261Y, T295Y, W437A, H445N
light: B1 light
notes: as for B1
B18: IgG with canine IgGB Fc variant L252Y, T286F (antibody)
heavy: B1 heavy with L261Y, T295F, W437A, H445N
light: B1 light
notes: as for B1
B19: IgG with canine IgGB Fc variant L252M, T286F (antibody)
heavy: B1 heavy with L261M, T295F, W437A, H445N
light: B1 light
notes: as for B1
B20: IgG with canine IgGB Fc variant L252M, A426Y (antibody)
heavy: B1 heavy with L261M, W437Y, H445N
light: B1 light
notes: as for B1

Changes are numbered by the printed parent chain. Names may count otherwise.

In the first test the target is T1, canine FcRn (soluble large subunit p51 isoform X2 with 6xHis-tag, co-expressed with canine … (canine)).
T1 construct: Heterodimer made by co-expression in CHO cells, purified on HISTRAP FF, >95% pure by SEC; Both entries hold a 19-residue signal peptide at the N-terminus that should be removed (residues 1-19); also called FcRn complex
T1 chain: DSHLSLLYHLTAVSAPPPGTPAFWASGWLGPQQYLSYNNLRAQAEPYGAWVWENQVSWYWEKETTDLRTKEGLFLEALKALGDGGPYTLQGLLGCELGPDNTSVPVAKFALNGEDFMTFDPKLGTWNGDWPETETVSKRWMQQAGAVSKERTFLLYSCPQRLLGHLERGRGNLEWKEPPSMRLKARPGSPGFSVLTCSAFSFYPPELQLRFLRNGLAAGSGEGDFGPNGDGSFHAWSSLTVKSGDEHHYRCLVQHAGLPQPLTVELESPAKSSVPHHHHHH
T1 b2m: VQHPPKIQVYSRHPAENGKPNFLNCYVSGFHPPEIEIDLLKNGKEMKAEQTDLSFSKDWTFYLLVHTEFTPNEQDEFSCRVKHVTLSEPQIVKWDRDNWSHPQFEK
Nature of the test: SPR, IgG on protein L chip, FcRn in flow, pH 5.9, kinetic data. The protocol: (§1) The canine FcRn binding experiments at pH 5.9 and pH 7.4 were completed on a BIACORE™ T200 instrument. A Series S Protein L Sensor chip (Cytiva, Cat. No. BR29205137) was used to capture the antibody variants via the kappa (κ) light chain. The canine variants were captured onto the protein L chip at a flow rate of 10 μL/min for 60 seconds. Approximately 250 RUs of the variants were captured. For the low pH binding condition, 1×PBX-P+ (Cytiva, Cat. No. 28995084) was adjusted to pH 5.9. The canine FcRn was flowed over the sensor chip at 30 μL/min for 120 seconds contact time and 600 seconds dissociation time. Regeneration of the flow cells was completed by flowing over 10 mM glycine, pH 1.7 at 30 μL/min for 30 seconds. The data were evaluated by the BIACORE™ T200 Evaluation software (version 3.2.1) by fitting to a 1:1 kinetic interaction model.
A general note: In SPR one partner is held on a chip, and binding of the other changes the refractive index at the surface.
B1 returned a Kd of 14.5 nM, an off-rate (koff) of 0.0406 s⁻¹ and a kon of 2.79e+06 M⁻¹ s⁻¹.
B2: the Kd was determined as 18.9 nM, the koff was 0.0492 s⁻¹ and the kon stood at 2.61e+06 M⁻¹ s⁻¹.
The matching figures for B3: 11.8 nM, 0.0296 s⁻¹ and 2.5e+06 M⁻¹ s⁻¹.
On the same counts, the results for B4 are 43.5 nM, 0.0491 s⁻¹ and 1.13e+06 M⁻¹ s⁻¹.
Turning to B5, the Kd was 55.3 nM, the koff came out at 0.097 s⁻¹ and the kon is 1.75e+06 M⁻¹ s⁻¹.
Take B6: the Kd was 3.76 nM, the koff turned out to be 0.00598 s⁻¹ and the kon was 1.59e+06 M⁻¹ s⁻¹.
On the same counts, the results for B7 are 6.41 nM, 0.012 s⁻¹ and 1.87e+06 M⁻¹ s⁻¹.
The matching figures for B8: 10.9 nM, 0.0252 s⁻¹ and 2.31e+06 M⁻¹ s⁻¹.
The molecule B9 gave a Kd of 18.2 nM, a koff of 0.0237 s⁻¹ and a kon of 1.31e+06 M⁻¹ s⁻¹.

The target in another test is T1, canine FcRn (soluble large subunit p51 …). Nature of the test: SPR, IgG on protein L chip, FcRn in flow, pH 5.9, 1:1 fit. The protocol: as §1
The molecule B10 displayed a Kd of 40.7 nM, a koff of 0.00335 s⁻¹ and a kon of 82400 M⁻¹ s⁻¹.
On the same counts, the results for B1 are 14.5 nM, 0.0406 s⁻¹ and 2.79e+06 M⁻¹ s⁻¹.
On the same counts, the results for B11 are 37 nM, 0.065 s⁻¹ and 1.76e+06 M⁻¹ s⁻¹.
On the same counts, the results for B2 are 18.9 nM, 0.0492 s⁻¹ and 2.61e+06 M⁻¹ s⁻¹.
In turn, B12 had a Kd of 9.82 nM, a koff of 0.0203 s⁻¹ and a kon of 2.07e+06 M⁻¹ s⁻¹.
On the same counts, the results for B3 are 11.8 nM, 0.0296 s⁻¹ and 2.5e+06 M⁻¹ s⁻¹.
The matching figures for B4: 43.5 nM, 0.0491 s⁻¹ and 1.13e+06 M⁻¹ s⁻¹.
The matching figures for B13: 64.5 nM, 0.0912 s⁻¹ and 1.42e+06 M⁻¹ s⁻¹.
In the case of B5, the Kd stood at 55.3 nM, the dissociation rate constant (koff) was 0.097 s⁻¹ and the kon was 1.75e+06 M⁻¹ s⁻¹.
Molecule B6 displayed a Kd of 3.76 nM, an off-rate (koff) of 0.00598 s⁻¹ and a kon of 1.59e+06 M⁻¹ s⁻¹.
On the same counts, the results for B14 are 102 nM, 0.111 s⁻¹ and 1.09e+06 M⁻¹ s⁻¹.
The matching figures for B15: 66.6 nM, 0.0822 s⁻¹ and 1.24e+06 M⁻¹ s⁻¹.
Turning to B16, the dissociation constant Kd was 90 nM, the koff was determined as 0.111 s⁻¹ and the kon was 1.23e+06 M⁻¹ s⁻¹.
On the same counts, the results for B17 are 10.2 nM, 0.018 s⁻¹ and 1.76e+06 M⁻¹ s⁻¹.
On to B18, for which binding was put at a Kd of 10.8 nM, the koff turned out to be 0.0193 s⁻¹ and the kon worked out at 1.79e+06 M⁻¹ s⁻¹.
On the same counts, the results for B7 are 6.41 nM, 0.012 s⁻¹ and 1.87e+06 M⁻¹ s⁻¹.
The matching figures for B8: 10.9 nM, 0.0252 s⁻¹ and 2.31e+06 M⁻¹ s⁻¹.
The matching figures for B19: 71.8 nM, 0.0937 s⁻¹ and 1.31e+06 M⁻¹ s⁻¹.
In turn, B20 had a dissociation constant Kd of 57.4 nM, a koff of 0.0581 s⁻¹ and a kon of 1.01e+06 M⁻¹ s⁻¹.
On the same counts, the results for B9 are 18.2 nM, 0.0237 s⁻¹ and 1.31e+06 M⁻¹ s⁻¹.

The next test shares this target. Nature of the test: SPR, IgG on protein L chip, FcRn in flow, pH 7.4, steady state fit. The protocol:
as §1
A subset of the Fc variants was tested for binding to canine FcRn at pH 7.4. For these experiments, 1×PBX-P+ (Cytiva, Cat. No. 28995084) was adjusted to pH 7.4. […] In addition, the pH 7.4 data were evaluated by the BIACORE™ T200 Evaluation software (version 3.2.1) by fitting to steady state affinity model. The kinetic binding data for the variants at pH 7.4 along with the binding data at pH 5.9 for these variants are shown in Table 7 below.
The molecule B1 came in with a Kd of 1790 nM.
Same read-out and setting: next, B2: 2030 nM.
Same read-out and setting: the value for B3 was 1380 nM.
On the same count and under the same terms, next, B4: 4440 nM; B5: 5400 nM; B6: 388 nM.
In turn, B7 yielded a Kd of 713 nM.
Still for that read-out and setting: next, B8: 1050 nM.
The same measure, in the same setting: the value for B9 was 2620 nM.
